Reference: the nanobody polyreactivity screen of Harvey et al. (2022)

Assay: yeast display, Sf9 membrane polyspecificity reagent, FACS + sequencing; frameworks hold sequencing errors
Summary of the method: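 After 36–48 hours of galactose induction, yeast (Saccharomyces cerevisiae BJ5465) displaying a synthetic nanobody library were stained at 4 °C for 1 hour with 10% biotinylated, detergent-solubilized Sf9 membrane reagent. Streptavidin microbeads enriched the stained cells before FACS sorting into low and high (top ~1%) gates on anti-HA and streptavidin fluorescence. Each clone's polyreactivity label reflects its gate of origin.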

Sequence	polyreactivity (PSR sort gate)
QVQLVESGGGLVQAGGSLRLICAASGRIFAHYARGWYRQAPGKERELVAAISWRGGRTYYADSVKGRFTISRDNAKNTVYLQMNSLKPEDTAVYYCNAVGYSQGYDYWGQGTQVTVSS	high polyreactivity
QVQRVESGGGLVQAGGSLRLTCAASGFTFVYYPMGWYRQAPGKVREWVAVISYSGTNTRYADSVKRRFTISRDNAKITVYLQMNSLKPEDTAVYYCAAEIYYVSWYDYWGQGTQVTVSS	high polyreactivity
QVQLVESGGGLVQAGGSLRLSCAASGSTFPIYAMGWYRQAPGKERELVAAITWRGGSRTYYADSVKGRFTISRDNAKNTVYLQMNSLKPEDTAVYYCAAEYQWPLYGYWGQGTQVTVSS	low polyreactivity
QVQRVESGGGLVQAGGSLRLSCAASGLIFYRYVMGWYRQAPGKETELVAAISGNGASTYYADSVKGRFTISRDNAKNTVYLQMHSLKPEDTAVYYCNADVYVSSKTHSSSPQWWGYDYWGQGTQVTVSS	low polyreactivity
QVQLVESGGGLVQAGGSLRLSCAASGSTFCFNDMGWYIQAPGKEREFVAAISSIGGSTYYADSVKGRFKISRDNAKNTLYLQMNSLKPEDTAVYYCAVEVVRVYRYDYWGQGTQVTVSS	low polyreactivity
QVQLVESGGGLVQAGGSLRLSCAASGRTFGRYLMGWYRQAPGKERLLVAAISFSGTGTYYADSVKGRFTISRDNAKYTVYLQMNSLKPEDTAVYYCAKGVTRVQYKHYYWGQGTQVTVSS	high polyreactivity
QVQLVESGGGLVQAGGSHRLSCAASGRIFNNNAMGWYRQAPGTEREFVAAISSGGGSTYYADSVKGRFTISRDNAKNTVYLQMNSLKPEDTAVYYCAARRHGRVDYSQGSRESYYWGQGTQVTVSS	high polyreactivity
QVQLVESAGGLVQEGGRLRLSCAASGITLGAYAMGRYRQAPGKEREMVARIRIGGSKYYADSVKGRFTISRDNEKNTVYLQMNSLKPEDTAVYYCATRWQEYAGDYWGDYWGQGTHVTVSS	low polyreactivity
QVQLVESGGGLVQAGGSLRLTCAASGRTFGTYAMGWSRQAPGKERELVAVITNGGGTYYADSVKGRFTISRDNAKNTVYLQMNSLKPEDTAVYYCNTDRYGLRRWVYSYWGGYDYWGQGTQVTVSS	low polyreactivity
QVQHVESGGGLVQAGGSLRLSCAASGITFNEYAMGWYRQAPGKEREFVAAISSSGARTYYADSVKGRFTISRDNAKNTVYLQMNSLKPEDTAVYYCAAVYRSWTSYNGRNYWGQGTQVTVSS	high polyreactivity
QVQLVESGGGLVQAGGSLRLSCAASGRTFYSNAMGWYRQAPGKERELVAAISRRGGRTYYADSVKGRFTISRDNAKNTVYLQMNSLKPEDTAVYYCAADAYLYQPEDYYYWGQGTQVTVSS	high polyreactivity
QVQLVESGGGLVQAGGSLRLSCAASGSIFASYVMGWYRQAPGKERELVAAISSSGASTYYADSVKGRFTISRDNAKNTVSLQMNSLKPEDTAVSYCATPYYRSYLGDYWGQGTQVTVSS	high polyreactivity
QVQLVESGGGLVQAGGSLRLSCAASGLIFRHYAMGWYRQAPGKERELVAAIDYSGGSTYYADSVKGRFTISRDNAKNTVYLQMNSQKPEDTAVYYCAADYFWMYYSEYGYWGQGTQVTVSS	low polyreactivity
QVQLVESGGGLVQAGGCLRISCAASGSIFPFYVMGRYRQAPGKERELVAAITRSGGSTYYADSVKGRFTISRDNAKNTVYLQMNSLKPEDTAVYYCAKRPHHGSTKYNYWGQGTQVTVSS	low polyreactivity
QVQLVESGGGLVQAGGSLRLSCAASGSIFAGNVMGWYRQAPGKESELVAAISRRGGRTYYADSVKGRFTISRDNAKNTVYLQMNSLKPEDTAVYYCAARRDPVLGKSDYWGQGTQVTVSS	high polyreactivity
QVQLVESGGGLVQAGGSLRLSCAASGSIFYDNDMGWYRQAPGNERELVAAISWSASDTYYADSVKGRFTISRDNAKNTVYLQMNSLKPDDTAVYYCNAEVYEWYVVYSALDYWGQGTQVTVSS	low polyreactivity
QVQLVESGGGLVQAGGTIRLSCAASGIIFRLNPMGWYRQAPGKERELVAAIRRRGGSTYYADSVKGRFTISRDNGKNNVYLQMYSVKPEETEVYHCAKDPHGSDFGYWGQGTHVTVSS	low polyreactivity
QVQLVESGGGLVQAGGSLRLSCAASGSIISRTVMGWYRQAPGKEREFVATISRSGGITYYADSVKGRFTISRDNAKNTVYLQMNSLKPEDTAVYYCAAGKFVSFPSHYGYWGQGTQVTVSS	high polyreactivity
QVQLVESGGGLVQAGGILRLSCAASGFIFNSYAMGWYRQAPGKERELVAAITKSGGRTYYADSVKGRFTISRDNEKNTVYFQMNSLKPEDTAVYYCAARAYRSSVYRGDYWGQGTQVTVSS	high polyreactivity
QVQLVESGGGLVQAGGSLRLSCAASGFTFLPAYAMGWYRQAPGKERELVAAITRGGSTYYADSVKGRFTISRDNAKNTVYLQMNSLKPEDTAVYYCNADQKFGFYRSVGDDYWGQGTQVTVSS	low polyreactivity
QVQLVESGGGLVQAGGSLRLSCAASGSIFRAYAMGWYRQAPGKERELVADISIGDNTYYADSVKGRFTISRDNAKNTVYLQMNSLKPEDTAVYYCAAVSDDVPWYWPQYTILDYWGQGTQVTVSS	high polyreactivity
QVQLVESGGGLVQAGGSLRLSCAASGRIFSTYAMGWYRQAPGKERELVAAINKIGGSTYYADSVKGRITISRDNAKNTVYLQMNSLKPEDTAVYYCAADAPYYPVRRYYYWGQGTQVTVSS	low polyreactivity

Sequence	polyreactivity (PSR sort gate)
QVQLVESGGGLVQAGGSLRLSCAASGLTFYRNVMGWYRQAPGKERELVAAISGNGGSTYYADSVKGRFTISRDNAKNTVYLQMNSLKPEDTAVYYCATRAYDTGYGYWGQGTQVTVSS	high polyreactivity
QVQLVESGGGLVQAGGSLRLSCAASGSTFHAYAMGWYRQAPGKERELVAGISWSGGDTTYADSVKGRFTISGDNAKNTVYLQMNSLKPEDTAVYYCAAAGRDPDNYLILNYWGQGTQVTVSS	low polyreactivity
QVQLVESGGGLVQAGGSLRLSCAASGFTFKGNAMGWYRQAPGKERELVAGISRSGRTYYADSVKGRFTISRDNAKNTVYLQMNSLKPEDTAVYYCNARNQGWASLPTMGYWGQGTQVTVSS	high polyreactivity
QVQLVESGGGLVQAGGSLRLSCAASGFTFPYYAMGWYREAPGKERELVAAISFSGGRTYYADSVKGRFTISRDNAKNTVYLQMNSLKPEDTAVYYCAAAKTYYRYNYWGQGTQVSVSS	high polyreactivity
QVQLVESGGGLVQAGGSLRLSCAASGSTFRYYDMGWYRQAPGKERELVAVISKSGARTYYADSVKGRFTISRDNAKNTVYLQMNSLKPEDTAVYYCIAVFKLDSQYAMGYWGQGTQLTVSS	high polyreactivity
QVQLVESGGGLVQAGGSLRLSCAASGFISSINAMGWYRQAPGKERELVAGIRARGTSTYYADSVKGRFTISRDNAKNTVYLQMNSLKPEDTAVYYCAADFTYQGSSANDYWGQGTQVTVSS	low polyreactivity
QVQLVESGGGLVQAGGSLRLSCAASGSTFIVYAMGWYRQAPGKERELVAAISLDGGSTYYADSVKGRFTISRDNAKNTVYLQMNSLKPEDSAVYYCNADYYANSITYDSWGQGSQVTVSS	low polyreactivity
QVQLVESGGGLVQAGGSLRLSCAASGITFNYNAMGWYRQAPGKERELVARITWSGTRTYYADSVKGRFTISRDNSKNTVYFQMNSLKPEDTAVYYCNAGPYARYYWGQGTQVTVSS	high polyreactivity
QVQLVESGGGLVQAGGSLRLSCAASGGSFGMNAMGWYRKAPGKERELVASINANGGSTYYADSVKGRFTISRDNAKNTVYLQMNSLKPEDTAVYYCAVVVTRYNHNEYNSWGQGTQVTVSS	low polyreactivity
QVQLVESGGGLVQAGGSLRLSCASSGSTFYNNAMGWYRPAPGKDRELVAAISSGGGTYYADSVKGRFTISRDNAKNTVYLQMNSLKPEDTAVYYCAADFANTTHWGRIKRYDYWGQGTQVTVSS	low polyreactivity
QVQLVESGGGLVQAGGSLRLSCAASGIILAYYAMRWYRQAPGKERELVASINRSGGSTYYADSVKGRFTISRDNAKNTVYFQMNSMKPEDTAVYYCDATTRGVGQWWYRYYYWGQGTQVTVSS	high polyreactivity
QVQLVESGGGLVQAGGSLRLSCAASGITFGGNALGWYRQAPGTERELVAGIDDGGSTNYADSVKGRFTISRDNAKNTVYLQMNSLKPEDTAVYYCAVQGHPPLVILPGFLFDYWGQGTQVTVSS	low polyreactivity
QVQLVESGGGLVQAGGSLRLSCAASGSIFTVYGMGWYRQAPGKERELVAAITCTSGGTYYADSVKGRFTISRDNAKNTVYLQMNSLKPEDTAVYYCNADGGSGAYLDLTITDYDYWGQGTQVTVSS	low polyreactivity
QVQLVESGGGLVQAGGSLRLSCAASGRIFPDNAMGWYRQAPGKERELVASITSGASTNYADSVKGRFTISRDNAKNTVFLQMNSLKPEDTAVYYCAAGYSYYDDYDYWGQGTQVTVSS	high polyreactivity
QVQLVESGGGLVQAGGSLRLSCAASGLTFRYNTMGWYRQAPGKEREFVAAINYGGGSTYYADSVKGRFTISRDNAKNTVYLQMNSLKPEDTAVYYCARRTPRTPVTLYDYWGQGTQVTVSS	high polyreactivity
QVQLVESGGGLVQAGGSLRLSCAASGGTFGSYAMGWYRQAPGKDRELVAAITGSGGRTYYADTVKGRFTISRDNAKNTVYLQMKSLKPEDTAVYYCNATRGIGTPYYYWGQGTQVTVSS	high polyreactivity
QVQLVESGGGLVQAGGSLRLSCAASGSTFYRYAMGWYRQAPGKERELVAAISSSGGSTYYADSVKGRFTISRDNAKNTVYLQMNSLKPEDTAVYYCNAALTPYDYDYWGQGTQVTVSS	low polyreactivity
QVQLVESGGGLVQAGGSLRLSCAASGGIFVRYAMGWYRQAPGKERELVAAISYSGGSTYYADSVKGRFTISRDNAKNTVYLQLNSLKPEDTAVYYCAAYVTGRYDWGQVTQVTVSS	high polyreactivity
QVQLVETGGGLVQAGGSLRLSCAASGRTFVGNAKGWYRPAPGQERELVADITWSGDITYYADSVKGRFTISRDHAKNSVYLQMNSLKPEDTAVYYCAADYHRRRTDYDYWGQGTQVTVSS	low polyreactivity
QVQLVESGGGLVQAGGSLRLSCAASGSIFDIYAMGWYRQAPGKERELVATITWDGVSTYYADSVKGRFTISRDNAKNTVYLQMNSLKPEDTAVYYCNVVVRYPSAYDYWGQGTQVTVSS	high polyreactivity
QVQLVESGGGLVQAGGSLRLICAASGFIFGKYVMGWYRQAAGKERELVAAITSSGGRTYYADSVKGRFTISRDNAKNTVYLQMNSLKPEDTGVYYCAARYVSYWPWFEYDYWGQGTQVTVSS	high polyreactivity
